Patent US20160194389A1

Legend:
[1] = biological target: human neonatal Fc-receptor (FcRn) (human) (UniProt P55899); assay: FcRn affinity column chromatography
[2] = biological target: human neonatal Fc-receptor (FcRn) (human) (UniProt P55899); assay: FcRn affinity chromatography of the knobs-into-holes anti-VEGF/ANG2 antibody

retention time [1] [min] | Substance | also measured
46 | symmetrically modified anti-HER2 antibody, mutation T256H | 
46.3 | symmetrically modified anti-HER2 antibody, mutation K317H | 
45.2 | symmetrically modified anti-HER2 antibody, mutation K288E | 
52 | symmetrically modified anti-HER2 antibody, mutation N434H | 
46.4 | symmetrically modified anti-HER2 antibody, mutation E430H | 

Second part, the substance before the results:

Substance | retention time [1] [min] | also measured
symmetrically modified anti-HER2 antibody, mutation K290H | 46.2 | 
symmetrically modified anti-HER2 antibody, mutation R255D | 41.4 | 
symmetrically modified anti-HER2 antibody, mutation Q311H | 46.3 | 
bispecific anti-VEGF/ANG2 antibody (knobs-into-holes), first chain with I253A/H310A/H435A and second chain with I253A/H310A/H435A (bispecific antibody) |  | RT [min] (retention time on the FcRn affinity column) [2]: 0 min
symmetrically engineered IgG1 Fc-region, L234A/L235A/P329G with Y436A (antibody) |  | FcRn-affinity column retention time [1]: 41.3 min
bispecific anti-VEGF/ANG2 antibody (knobs-into-holes), first chain with I253A/H310A/H435A and second chain with H310A (bispecific antibody) |  | RT [min] (retention time on the FcRn affinity column) [2]: 0 min
symmetrically modified anti-HER2 antibody, mutation D98E | 46.2 | 
symmetrically modified anti-HER2 antibody, mutation E258H | 45.6 | 
symmetrically modified anti-HER2 antibody, mutation L309H | 45.5 | 
bispecific anti-VEGF/ANG2 antibody (knobs-into-holes), no FcRn affecting mutation (bispecific antibody) |  | RT [min] (retention time on the FcRn affinity column) [2]: 52.8 min
bispecific anti-VEGF/ANG2 antibody (knobs-into-holes), first chain with I253A/H310A/H435A and second chain with H435A (bispecific antibody) |  | RT [min] (retention time on the FcRn affinity column) [2]: 0 min
